Source: patent publication US20160032263A1
“And” between values parts separate entries of the source, which are not always exact repeats. Identical values can stand only once.

Target: histidine-tagged HIV-1 integrase protein (IN) (HIV-1) (UniProt P04585)
Experiment: cell-based or functional assay

Row | Substance | inhibition of IN enzymatic activity
1 | Rev 13-23 peptide (Rev-derived peptide, as used in the IN activity assay) (from UniProt P04618 13-23) | 60 % inhibition and 70 % inhibition
2 | Rev 53-67 peptide (Rev-derived peptide, as used in the IN activity assay) (from UniProt P04618 53-67) | 60 % inhibition and 70 % inhibition
